T1: mNeon PPM1H (full-length PPM1H with mNeon inserted into loop 1 at position 125) (human, UniProt Q9ULR3 1-514)
T1 construct: PPM1H phosphatase, human, full length; mNeon inserted into loop 1 (residues 115-133) at position 125; the plasmid is pET15b His SUMO mNeon PPM1H; His-SUMO removed by Ulp1 before gel filtration; also called WT PPM1H; HisSUMO-mNeon PPM1H; not shown: mNeon, internal (loop 1, at position 125), kept
T1 sequence (looked up): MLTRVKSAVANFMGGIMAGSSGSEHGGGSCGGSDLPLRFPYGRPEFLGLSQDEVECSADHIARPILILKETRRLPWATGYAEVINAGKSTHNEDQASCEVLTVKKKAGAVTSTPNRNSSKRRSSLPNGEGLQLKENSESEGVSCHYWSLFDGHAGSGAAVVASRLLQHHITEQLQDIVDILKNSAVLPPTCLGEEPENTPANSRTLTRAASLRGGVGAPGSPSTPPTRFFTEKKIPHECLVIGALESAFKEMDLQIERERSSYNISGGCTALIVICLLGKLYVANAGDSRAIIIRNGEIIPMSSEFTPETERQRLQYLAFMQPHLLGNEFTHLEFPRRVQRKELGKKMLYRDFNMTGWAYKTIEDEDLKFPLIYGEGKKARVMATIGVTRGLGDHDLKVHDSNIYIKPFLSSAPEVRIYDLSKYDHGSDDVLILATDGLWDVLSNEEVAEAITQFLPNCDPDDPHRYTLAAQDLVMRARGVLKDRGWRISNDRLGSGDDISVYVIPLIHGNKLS


Target: T1, mNeon PPM1H (full-length PPM1H with …)
Experiment: MST; unlabelled Rab protein (16 serial dilutions) titrated against 100 nM fluorescent mNeon PPM1H variant; 30 min in the dark; Monolith NT.115; three independent measurements with different protein preparations
Settings: both partners purified

| Binder | Kd [µM] |
| --- | --- |
| His Rab8A Q67L (full length, nonprenylated, nonphosphorylated) (natural protein, human, UniProt P61006 1-207, looked up, subcloned from HA-Rab8A (DU35414) into pET14b; also called Rab8A-6XHis; unphosphorylated Rab8A; source: E. coli, purified (TALON, Superdex 75), 20 μM GTP in all buffers) MAKTYDYLFKLLLIGDSGVGKTCVLFRFSEDAFNSTFISTIGIDFKIRTIELDGKRIKLQIWDTAGLERFRTITTAYYRGAMGIMLVYDITNEKSFDNIRNWIRNIEEHASADVEKMILGNKCDVNDKRQVSKERGEKLALDYGIKFMETSAKANINVENAFFTLARDIKAKMDKKLEGNSPQGSNQGVKITPDQQKRSSFFRCVLL | 1.4 |
| Rab12 Q101L (full length, nonprenylated, nonphosphorylated) (natural protein, human, UniProt Q6IQ22-2 1-244, looked up, also called His SUMO Rab12 (full length) Q101L; source: E. coli, purified (TALON, Ulp1 cleavage, Superdex 200), 20 μM GTP in all buffers) MDPGAALQRRAGGGGGLGAGSPALSGGQGRRRKQPPRPADFKLQVIIIGSRGVGKTSLMERFTDDTFCEACKSTVGVDFKIKTVELRGKKIRLQIWDTAGLERFNSITSAYYRSAKGIILVYDITKKETFDDLPKWMKMIDKYASEDAELLLVGNKLDCETDREITRQQGEKFAQQITGMRFCEASAKDNFNVDEIFLKLVDDILKKMPLDILRNELSNSILSLQPEPEIPPELPPPRPHVRCC | 7.4 |

Binders with a lower Kd, results first:

| Kd [µM] | Binder |
| --- | --- |
| 1.3 | Rab10 Q68L (full length, nonprenylated, nonphosphorylated) (natural protein, human, UniProt P61026 1-200, looked up, also called His SUMO Rab10 (full length) Q68L; untagged Rab10 Q68L; source: E. coli, purified (TALON, Ulp1 cleavage, Superdex 200), 20 μM GTP in all buffers) MAKKTYDLLFKLLLIGDSGVGKTCVLFRFSDDAFNTTFISTIGIDFKIKTVELQGKKIKLQIWDTAGLERFHTITTSYYRGAMGIMLVYDITNGKSFENISKWLRNIDEHANEDVERMLLGNKCDMDDKRVVPKGKGEQIAREHGIRFFETSAKANINIEKAFLTLAEDILRKTPVKEPNSENVDISSGGGVTGWKSKCC |
| 1 | Thiophosphorylated His Rab8A Q67L (natural protein, human, UniProt P61006 1-207, looked up, thiophosphorylated with ATPγS by MST3 kinase (fully modified by PhosTag gel); the residue is not given, Rab8A GTPase, full length, Q67L, thiophosphorylated form of m5; also called Thio-pRab8A (Q67L); thiophosphorylated Rab8A; source: E. coli, purified (TALON, Superdex 75); thiophosphorylated in vitro overnight at 4 °C by His-MST3 kinase with ATPγS) MAKTYDYLFKLLLIGDSGVGKTCVLFRFSEDAFNSTFISTIGIDFKIRTIELDGKRIKLQIWDTAGLERFRTITTAYYRGAMGIMLVYDITNEKSFDNIRNWIRNIEEHASADVEKMILGNKCDVNDKRQVSKERGEKLALDYGIKFMETSAKANINVENAFFTLARDIKAKMDKKLEGNSPQGSNQGVKITPDQQKRSSFFRCVLL |
